Source: PMC9638939

Test system: T1, hADAR2-R2D E488Q E488Q (Homo sapiens), P78563-2
T1 sequence: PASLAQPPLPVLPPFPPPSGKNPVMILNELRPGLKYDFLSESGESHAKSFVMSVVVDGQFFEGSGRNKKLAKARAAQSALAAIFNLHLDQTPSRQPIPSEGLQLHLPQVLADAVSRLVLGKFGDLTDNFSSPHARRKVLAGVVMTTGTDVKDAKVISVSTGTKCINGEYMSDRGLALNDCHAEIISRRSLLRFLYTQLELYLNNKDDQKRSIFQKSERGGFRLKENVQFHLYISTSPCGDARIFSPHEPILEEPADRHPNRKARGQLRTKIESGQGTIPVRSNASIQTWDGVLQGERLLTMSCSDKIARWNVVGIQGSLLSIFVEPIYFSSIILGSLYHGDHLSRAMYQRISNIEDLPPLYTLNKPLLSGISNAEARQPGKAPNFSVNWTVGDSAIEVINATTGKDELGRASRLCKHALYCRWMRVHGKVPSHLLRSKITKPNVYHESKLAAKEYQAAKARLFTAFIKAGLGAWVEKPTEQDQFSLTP
Assay: EMSA
Details: N at position 13 of strand 1 = 8-azanebularine; EMSA: labeled strand hybridized to complement 1:3 in 1X TE pH 7.5; protein 0.25-256 nM (GG) or 0-260 nM (UA); binding buffer, salt and temperature not given in …

## GCUCGCGAUGCGNGAGGGCUCUGAUAGCUACG / CGUAGCUAUCAGAGCCCCCCGGCAUCGCGAGC [GLI1 (GG) 32mer, azaN]
  Kd: 6 nM

## GCUCGCGAUGCUNGAGGGCUCUGAUAGCUACG / CGUAGCUAUCAGAGCCCCCCAGCAUCGCGAGC [GLI1 (UA) 32mer, azaN]
  Kd: 0.9 nM
